Assay [1] addresses T1, Csx19 subunit of the Synechocystis sp. PCC 6803 Type III-Dv complex (Synechocystis sp. PCC 6803).
T1 construct: Untagged, co-expressed from pPF2434 in E. coli; one copy in the complex
T1 chain: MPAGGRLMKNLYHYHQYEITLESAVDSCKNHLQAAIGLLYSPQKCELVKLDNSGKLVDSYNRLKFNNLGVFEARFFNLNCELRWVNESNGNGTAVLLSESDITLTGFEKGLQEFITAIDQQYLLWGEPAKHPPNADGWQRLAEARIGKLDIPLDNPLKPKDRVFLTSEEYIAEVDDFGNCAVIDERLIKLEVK
Briefly: cryo-EM structure of the binary complex, 2.5 Å. As to the method:
Fully assembled Type III-D binary complex was diluted to a concentration of 0.3 mg/ml in SEC buffer before 2.5 μl of sample was added to a quantifoil 1.2/1.3 grid that was glow discharged for 1 minute. Sample was applied to the grid in an FEI Vitrobot MarkIV kept at 100% humidity and 4° C. before blotting for 5.5 seconds with a force of 0. For the ssRNA target-bound complex, non-self ssRNA was mixed with the binary complex with a 2:1 molar ratio of RNA:Binary complex in SEC buffer to a final protein concentration of 0.3 mg/mL. Grids of the target-bound complex were frozen identical to that of the binary complex. Both grids were loaded to an FEI Titan Krios (Sauer Structural Biology Lab, University of Texas at Austin) operating at 300 kV. Images were taken at a pixel size of 0.81 Å/pixel with a dose rate of 10.6 e⁻/pixel/s for 5 seconds using a Gatan K3 direct electron detector, giving a final dosage of 80.5 e⁻/Å². Data collection was automated using SerialEM using a defocus range of −1.2 to −2.2 μm.
To delineate the architecture of this Type III-Dv effector, we used cryo-EM to determine a 2.5-Å resolution structure of the complex containing the nt crRNA (FIG. 1e,f, FIG. 8). To gain preliminary insights, we generated initial models of each subunit using Alphafold 2. […]

The target in assay [2] is T2, Cas7-Cas5-Cas11 fusion subunit of the Synechocystis sp. PCC 6803 Type III-Dv complex (Synechocystis sp. PCC 6803).
T2 construct: Untagged, co-expressed from pPF2434 in E. coli; one copy in the complex; also called Cas7-5-11; Cas5-Cas7-Cas11
T2 chain: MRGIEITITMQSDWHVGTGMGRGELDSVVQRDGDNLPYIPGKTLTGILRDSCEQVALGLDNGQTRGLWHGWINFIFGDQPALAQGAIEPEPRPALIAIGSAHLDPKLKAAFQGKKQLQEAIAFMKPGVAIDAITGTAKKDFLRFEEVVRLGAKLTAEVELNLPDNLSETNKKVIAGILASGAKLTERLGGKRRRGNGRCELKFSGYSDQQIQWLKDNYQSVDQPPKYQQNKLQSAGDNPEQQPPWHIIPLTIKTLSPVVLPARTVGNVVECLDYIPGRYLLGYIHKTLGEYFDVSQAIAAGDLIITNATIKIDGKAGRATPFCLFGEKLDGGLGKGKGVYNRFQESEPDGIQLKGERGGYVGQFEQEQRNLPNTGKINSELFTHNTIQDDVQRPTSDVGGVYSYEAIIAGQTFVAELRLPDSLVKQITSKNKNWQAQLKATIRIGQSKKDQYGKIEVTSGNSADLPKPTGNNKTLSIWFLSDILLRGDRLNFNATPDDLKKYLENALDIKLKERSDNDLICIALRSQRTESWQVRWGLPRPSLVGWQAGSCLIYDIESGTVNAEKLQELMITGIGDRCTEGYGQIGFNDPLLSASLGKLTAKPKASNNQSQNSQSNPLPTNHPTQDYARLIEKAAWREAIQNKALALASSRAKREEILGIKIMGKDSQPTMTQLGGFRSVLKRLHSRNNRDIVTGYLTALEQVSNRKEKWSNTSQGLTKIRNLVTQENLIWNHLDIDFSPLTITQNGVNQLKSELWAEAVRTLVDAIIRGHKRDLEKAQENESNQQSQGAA
Briefly: co-purification by metal affinity (His6-Cas10) and SEC; SDS-PAGE and MS; membership of one complex. The procedure:
Cells were lysed by a French pressure cell press (American Industry Company) at 10,000 psi, and the lysate was clarified by centrifugation at 15,000×g for 15 min. […] The fractions containing the Type III-Dv complex were pooled and treated with TEV protease and incubated at 4° C. during overnight dialysis in SEC buffer (10 mM HEPES-NaOH, PH 7.5, 100 mM KCl, 5% Glycerol, 1 mM DTT). The sample was applied to a second HisTrap column; however, due to inefficient TEV cleavage, the complex unexpectedly bound the column and eluted with high imidazole. The complex was further purified by size exclusion chromatography (SEC) on a HiLoad 16/600 Superdex 200 column (GE Healthcare) equilibrated in SEC Buffer). Mutant Type III-Dv complexes were similarly expressed and purified, except TEV protease was omitted. Purified complexes were typically concentrated to 1.5 mg/ml using a centrifugal concentrator (Amicon; 100 kDa MWCO), aliquoted, and stored at −80° C.
Denaturing liquid chromatography mass spectrometry (LC-MS) was performed on a Dionex UltiMate 3000 nanoLC system coupled to a Thermo Orbitrap Fusion Lumos Tribrid mass spectrometer (San Jose, Ca). The trap column (3 cm) and analytical column (30 cm) were packed in-house with polymer reverse-phase (PLRP) packing material. […]

The source of these data is US20250361544A1, “TYPE III-D CRISPR-CAS SYSTEM AND USES THEREOF” (BOARD OF REGENTS, THE UNIVERSITY OF TEXAS SYSTEM, published 2025).

B1: Cas10 subunit of the Synechocystis sp. PCC 6803 Type III-Dv CRISPR-Cas complex, with N-terminal His6 tag and TEV site (other)
chain: MFLVLIETSGNQHFIFSTNKLRENIGASELTYLATTEILFQGVDRVFQTNYYDQWSDTNSLNFLADSKLNPAIDDPKNNADIEILLATSGKAIALVKEEGKAKQLIKEVTKQALINAPGLEIGGIYVNCNWQDKLGVAKAVKEAHKQFEVNRAKRAGANGRFLRLPIAAGCSVSELPASDFDYNADGDKIPVSTVSKVKRETAKSAKKRLRSVDGRLVNDLAQLEKSFDELDWLAVVHADGNGLGQILLSLEKYIGEQTNRNYIDKYRRLSLALDNCTINAFKMAIAVFKEDSKKIDLPIVPLILGGDDLTVICRGDYALEFTREFLEAFEGQTETHDDIKVIAQKAFGVDRLSACAGISIIKPHFPFSVAYTLAERLIKSAKEVKQKVTVTNSSPITPFPCSAIDFHILYDSSGIDFDRIREKLRPEDNTELYNRPYVVTAAENLSQAQGYEWSQAHSLQTLADRVSYLRSEDGEGKSALPSSQSHALRTALYLEKNEADAQYSLISQRYKILKNFAEDGENKSLFHLENGKYVTRFLDALDAKDFFANANHKNQGE
notes: Whole gene amplified from Synechocystis genomic DNA and co-expressed in E. coli from pPF2434; The complex also holds a 37-nt crRNA; also called His6-TEV-Cas10; N-His6-tagged Cas10; not shown: TEV cleavage was inefficient, so
Turning to B1, the binding result in assay [1] and in assay [2] was “binds” throughout.
